The record followed here is publication PMC3985653, “A bacteriophage transcription regulator inhibits bacterial transcription initiation by σ-factor displacement”.

Data set [1] addresses T1, P7-sensitive core RNA polymerase (P7SE; hybrid E. coli core with Xo beta' N-terminus NLFN);sigma70 (Escherichia coli (397c cells, …, UniProt P0A7Z4;P0A8V2;Q2NZX9;P0A800;P00579 1-329;1-1342;1-10+P0A8T7:11-1407;2-91;1-613, internal_change|). Description: EMSA; no P7; heparin-resistant open complex. Particulars: protein: recombinant;recombinant; tags: C-6His on beta';N-6His-HMK in 32P-labelled experiments; unlabelled form purified separately; chain copies: 2;1;1;1;1; blunt. A general note: Mobility shift assays separate free from complexed probe on a gel.

In data set [2] the target is T1, P7-sensitive core RNA polymerase (P7SE; …). The data set is described as follows: KMnO4 footprinting. The conditions noted are these: protein: recombinant;recombinant; tags: C-6His on beta';N-6His-HMK in 32P-labelled experiments; unlabelled form purified separately; chain copies: 2;1;1;1;1; label: 5'-32P on one strand; blunt.

B1: lacUV5 promoter [-64 to +36] (dsDNA)
DNA 1: GTTAGCTCACTCATTAGGCACCCCAGGCTTTACACTTTATGCTTCCGGCTCGTATAATGTGTGGAATTGTGAGCGGATAACAATTTCACACAGGAAACAG
DNA 2: CTGTTTCCTGTGTGAAATTGTTATCCGCTCACAATTCCACACATTATACGAGCCGGAAGCATAAAGTGTAAAGCCTGGGGTGCCTAATGAGTGAGCTAAC
As for B1, the binding result in data set [1] was “binds”.

B2: T5 N25 promoter [-65 to +35] (dsDNA)
DNA 1: TCTTTGCTCAAAGAATCATAAAAAATTTATTTGCTTTCAGGAAAATTTTTCTGTATAATAGATTCATAAATTTGAGAGAGGAGTTTAAATATGGCTGGTTC
DNA 2: GAACCAGCCATATTTAAACTCCTCTCTCAAATTTATGAATCTATTATACAGAAAAATTTTCCTGAAAGCAAATAAATTTTTTATGATTCTTTGAGCAAAGA
On to B2, for which the binding result in data set [2] was “binds”.
